Results from patent US10215752B2, “Nanotube array for optical detection of protein-protein interactions” (MASSACHUSETTS INSTITUTE OF TECHNOLOGY, priority 2010, dated 2019).
Like-named read-outs stand apart in the source and are kept apart here. Values belong to the compound of their own block, whether it stands above or below them.

Columns and labels:
[1] = tested on: SWNT-Chitosan lectin sensors; assay: Ensemble chitosan-SWNT sensor measurements, controls and overall response (lectin not stated); assay type: binding; settings: FIG. 30a
Description: To increase the reproducibility of these sensors, an automated printing method of the chitosan gel was introduced (FIG. 35). Patterned glass microscope slides (Tekdon™) were inserted in a microarray printer (Digilab MicroSys System™), where the robotic head was programmed to dispense alternating layers of chitosan-SWNT (0.25 wt % chitosan (CHI), 1 vol % acetic acid, 30 ug/ml suspended (6,5) SWNT) and crosslinker (10 vol % glutaraldehyde). The suspended SWNT was made from Southwest Nanotechnologies, Inc. CoMoCAT® nanotubes sonicated in 0.25 wt % chitosan (CHI) and 1 vol % acetic acid for 45 minutes at 40% amplitude with a probe-tip sonicator (Cole Parmer, Model CV18). For each sensor spot ten alternating layers of SWNT-CHI and cross-linker were printed at […] per layer, resulting in a highly-uniform gel of 1 ul SWNT-CHI material. […]
A custom-made near infrared inverted microscope (Zeiss D.1 Observer™) setup allowed us to probe the fluorescent emissions of our SWNT sensors (FIG. 26a). […] The SWNT were excited by a 785 nm laser (B&W Tek™—495 mW) and the emission was sent to a spectrometer (Princeton Instruments Acton SpectraPro 2500i Spectrograph™) and accompanying nIR camera (Intervac MOSIR Camera 350™) The spectra were collected via WinSpec software (Princeton Instruments™) and analyzed with custom Matlab (Mathworks™) code. […]

PA-IIL lectin = molecular target: T1, PA-IIL lectin (Pseudomonas aeruginosa, UniProt Q9HYN5); assay type: binding; settings: for sensor response / cross response to PA-IIL lectin: controls and selectivity, FIG. 30a, FIG. 31
T1 construct: made in house; host or cells: E. coli BL21(DE3) Star
Description: (§1) To increase the reproducibility of these sensors, an automated printing method of the chitosan gel was introduced (FIG. 35). Patterned glass microscope slides (Tekdon™) were inserted in a microarray printer (Digilab MicroSys System™), where the robotic head was programmed to dispense alternating layers of chitosan-SWNT (0.25 wt % chitosan (CHI), 1 vol % acetic acid, 30 ug/ml suspended (6,5) SWNT) and crosslinker (10 vol % glutaraldehyde). The suspended SWNT was made from Southwest Nanotechnologies, Inc. CoMoCAT® nanotubes sonicated in 0.25 wt % chitosan (CHI) and 1 vol % acetic acid for 45 minutes at 40% amplitude with a probe-tip sonicator (Cole Parmer, Model CV18). […] The chips were printed in a humidified enclosure (85% RH) at 25° C. and allowed to cross-link overnight in the same environment. Nickel-NTA groups were introduced as previously reported^8; see FIG. 3. Briefly, the chips were washed with a dilute basic buffer (0.01 M NaOH) and water three times. Carboxylic acid groups were introduced to the chitosan wrapped SWNT by bathing the chips in succinic anhydride (0.1 M) overnight. The chips were then washed three times with water and the carboxylic acid groups were activated via N-(3-dimethylaminopropyl)-N′-ethylcarbo diimide hydrochloride (EDC-0.1M) and N-hydroxysuccinimide (NHS-0.1M). The chips were bathed in this solution for 2 hours at 25° C. and examined for the expected formation of bubbles. The chips were again washed and allowed to bathe in a solution of a linked tricarboxylic acid group (Nα,Nα-bis(carboxymethyl)-L-lysine a.k.a. NTA-33 mM) overnight. The chips were washed in water again and stored in a 100 mM solution of NiSO4 to allow maximum binding of nickel to the NTA chelating groups.
(§2) A custom-made near infrared inverted microscope (Zeiss D.1 Observer™) setup allowed us to probe the fluorescent emissions of our SWNT sensors (FIG. 26a). The chips were secured on the microscope stage and the objective (50×/0.7 Zeiss™) was pushed in contact with a blank portion of the glass slide (no SWNT-CHI) to obtain a 5 second background spectrum, which was subtracted from the response spectra. The objective was then moved under a SWNT-CHI gel spot and again pushed in contact with the glass slide. […] The SWNT were excited by a 785 nm laser (B&W Tek™—495 mW) and the emission was sent to a spectrometer (Princeton Instruments Acton SpectraPro 2500i Spectrograph™) and accompanying nIR camera (Intervac MOSIR Camera 350™) The spectra were collected via WinSpec software (Princeton Instruments™) and analyzed with custom Matlab (Mathworks™) code. To maximize signal stability, the spectrometer was cooled with liquid nitrogen two hours prior to experimentation and the laser was allowed to reach peak stability for two hours. […] Data was gathered in the form of emission intensity spectra (950-1250 nm) integrated for 5 seconds.
(§3) A typical experiment was run for approximately 1000 frames (at 5 seconds each) and included a few addition and washing steps to detect lectin-glycan binding (FIG. 26b). First NiSO4 was again added to ensure that the SWNT sensors were responsive and that the NTA chelating groups were fully loaded with Ni^++ groups. The nickel was then washed away with PBS three times, leaving 20 ul of PBS on the sensors. The His-tag lectin was then added to the sensor (20 μl at 2 mg/ml) and allowed to bind for 300 seconds.

GafD lectin [2] = molecular target: T2, GafD lectin (Escherichia coli, UniProt Q47341); assay type: binding; set-up: made in house; host or cells: E. coli BL21(DE3) Star; settings: for sensor response / cross response to GafD lectin: controls and selectivity, FIG. 30a, FIG. 31
Description: as §1, §2, §3

GafD lectin [3] = molecular target: T2, GafD lectin; settings: 10 μM probe, sum of noise-reduced traces from 150 individual SWNT sensors
GafD lectin [4] = molecular target: T2, GafD lectin; settings: probe 1 mg/ml with GafD 3 mg/ml in solution
CDK4 = CDK4 (Homo sapiens, UniProt P11802); assay: Protein-protein interaction on SWNT/CHI array, Förster distance calculation; settings: distance change after analyte protein CDK4, Förster equation
Description: Reaction mixtures for cell-free protein expression were added to each array wells. The fluorescent intensities of each SWNT/CHI well were taken to track the intensity changes. To initiate protein synthesis, 1 μl PCR-amplified DNAs were added to each well a humidified chamber at 37° C. for 2 hours. The arrays were washed three times for 10 min each with PBS buffer (pH 7.4, 100 mM) at RT and then PL spectra were taken. To analyze protein-protein interaction on SWNT/XHI array, anti-Histag antibody or cell-free expressed protein mixtures were added to each well and then PL spectra were taken to compare the intensity change.
Near-infrared photoluminescence spectra were acquired using 785 nm excitation and an Acton SP-150 spectrograph coupled to a Princeton instruments OMA V InGaAs detector or with Kaiser Holospec f/1.8 Imaging Spectrograph (Kaiser Optical).

[5] = from concentration dependent curves, analyte to PA-IIL
[6] = after Ni2+ and GafD lectin loading, FIG. 29a-b
[7] = from concentration dependent curves, analyte to GafD

T2 sequence (Q47341 23-343): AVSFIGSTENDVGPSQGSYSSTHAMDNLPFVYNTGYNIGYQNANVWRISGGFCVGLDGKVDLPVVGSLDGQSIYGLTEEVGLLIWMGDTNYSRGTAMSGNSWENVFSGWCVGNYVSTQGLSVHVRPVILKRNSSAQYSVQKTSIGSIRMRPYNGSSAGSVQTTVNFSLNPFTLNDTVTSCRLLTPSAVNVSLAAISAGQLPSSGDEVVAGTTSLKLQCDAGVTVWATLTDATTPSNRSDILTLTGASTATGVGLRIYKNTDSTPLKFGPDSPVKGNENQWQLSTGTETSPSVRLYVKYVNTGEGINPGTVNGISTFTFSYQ
T1 sequence (Q9HYN5 entry or part of it): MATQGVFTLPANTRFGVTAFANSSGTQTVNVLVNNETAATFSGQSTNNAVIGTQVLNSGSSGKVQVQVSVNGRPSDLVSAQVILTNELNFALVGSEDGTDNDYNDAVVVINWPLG
Chain of CDK4 (P11802 with tags, fused parts or gaps): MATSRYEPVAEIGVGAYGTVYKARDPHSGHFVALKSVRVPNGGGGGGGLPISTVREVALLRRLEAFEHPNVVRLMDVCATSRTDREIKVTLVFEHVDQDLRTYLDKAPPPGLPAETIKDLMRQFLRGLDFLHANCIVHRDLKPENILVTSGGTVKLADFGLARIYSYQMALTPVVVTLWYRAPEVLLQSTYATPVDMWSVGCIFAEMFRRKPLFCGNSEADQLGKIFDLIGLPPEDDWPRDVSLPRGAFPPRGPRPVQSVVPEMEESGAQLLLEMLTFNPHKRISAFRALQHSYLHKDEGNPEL

Compound: O=C(O)CCCC[C@@H]1SC[C@@H]2NC(=O)N[C@@H]21 [biotin]
sensor response of controls [1]: negligible response

Compound: Fuc-Strept: model glycoprotein probe: biotinylated fucose glycan bound to streptavidin
sensor response / cross response to PA-IIL lectin (PA-IIL lectin): positive response | Kf (PA-IIL lectin; [5]): 0.0001 µM/s | sensor response / cross response to GafD lectin (GafD lectin [2]): small affinity

Compound: Fucα1-2Galβ1-4Glcβ-SpNH-LC-LC-Biotin [Fuc-Biotin]
Kd (PA-IIL lectin; [5]): 106 µM | Kf (PA-IIL lectin; [5]): 7e-05 µM/s | kr (PA-IIL lectin; [5]): 0.0074 s⁻¹

Compound: GlcNAc-Strept: model glycoprotein probe: biotinylated GlcNAc glycan bound to streptavidin
sensor response / cross response to PA-IIL lectin (PA-IIL lectin): negligible binding | signal modulation (response) (GafD lectin [3]): ~3.5% | complex formation on native PAGE gel (GafD lectin [4]): bound complex | time response (loading curve) upon analyte addition (GafD lectin [2]; [6]): SPR-like loading curve was observed | sensor response / cross response to GafD lectin (GafD lectin [2]): positive response | Kf (GafD lectin [2]; [7]): 0.0003 µM/s | kr (GafD lectin [2]; [7]): 0.015 s⁻¹

Compound: GlcNAcβ-SpNH-LC-LC-Biotin [GlcNAc-Biotin]
time response (loading curve) upon analyte addition (GafD lectin [2]; [6]): loading curve was observed | Kd (GafD lectin [2]; [7]): 19 µM | Kf (GafD lectin [2]; [7]): 0.0002 µM/s | kr (GafD lectin [2]; [7]): 0.0037 s⁻¹

Compound: blank streptavidin: streptavidin (Sigma Aldrich SO677) without glycan
sensor response of controls [1]: negligible response | time response (loading curve) upon analyte addition (GafD lectin [2]; GafD lectin biotinylated, positive control, FIG. 29c): expected loading curve was observed | time response (loading curve) upon analyte addition (GafD lectin [2]; [6]): No loading curve was observed

Δd2 (CDK4): 0.05174
Compound: p16: human derived protein (ExPASy P42771), on-chip cell-free expressed with His-tag
